Data from PMC11723922, “The TGF-β mimic TGM4 achieves cell specificity through combinatorial surface co-receptor binding” (EMBO Reports, 2024).

T1: Mouse CD44 extracellular domain, recombinant (mouse, UniProt P15379 23-685)
T1 construct: CD44, mouse, extracellular domain; also called mCD44; murine CD44; source: expi293 cells, purified from the conditioned medium
T1 sequence (looked up): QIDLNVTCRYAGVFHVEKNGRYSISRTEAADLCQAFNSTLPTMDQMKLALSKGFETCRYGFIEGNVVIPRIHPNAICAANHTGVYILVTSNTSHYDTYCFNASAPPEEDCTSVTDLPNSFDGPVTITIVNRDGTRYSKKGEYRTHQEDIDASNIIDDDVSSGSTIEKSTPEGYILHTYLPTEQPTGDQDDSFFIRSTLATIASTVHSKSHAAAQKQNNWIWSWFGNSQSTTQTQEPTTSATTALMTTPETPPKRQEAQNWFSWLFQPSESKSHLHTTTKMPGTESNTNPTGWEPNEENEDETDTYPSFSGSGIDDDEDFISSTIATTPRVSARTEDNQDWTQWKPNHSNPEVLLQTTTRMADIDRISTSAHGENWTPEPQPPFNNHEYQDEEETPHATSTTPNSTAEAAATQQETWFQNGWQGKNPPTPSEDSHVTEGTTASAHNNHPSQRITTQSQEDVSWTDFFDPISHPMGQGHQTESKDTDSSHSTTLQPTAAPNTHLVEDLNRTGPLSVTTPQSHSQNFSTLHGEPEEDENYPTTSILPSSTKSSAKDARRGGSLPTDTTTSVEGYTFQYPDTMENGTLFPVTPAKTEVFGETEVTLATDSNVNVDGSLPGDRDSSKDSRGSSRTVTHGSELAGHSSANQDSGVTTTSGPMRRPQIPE

B1: TGM1 D4-5, recombinant (domain or fragment)
chain: RCKPLEANESVHYEYFTMTNETDKKKGPPAKVGKSGKYPEHTCVKKVCSKWPYTCSTGGPIFGECIGATWNFTALMECINARGCSSDDLFDKLGFEKVIVRKGEGSDSYKDDFARFYATGSKVIAECGGKTVRLECSNGEWHEPGTKTVHRCTKDGIRTL
B2: TGM4 D4-5, recombinant (domain or fragment)
chain: RCKPLETNVSVHYEYFTMTNETGRKEGTPAEVDKGGKYPQHTCVRKFCDKSPYTCSVKGPIFGECLDGQWNFTALDECLNARGCNSDDLFDKLGFEGVMVREEEGSDSYKDDFVRFYATGSKVNAECKGKTVQLECSDGEWHDPGTKTVHRCTKEGIRAL
modifications: biotinylated in the streptavidin pull-downs; Alexa Fluor 488 label in flow cytometry; unlabelled in ITC and as competitor

Tests used:
[1] = biological target: T1, Mouse CD44 extracellular domain, …; experiment: ITC; TGM D4-5 fragments with mouse or human CD44 extracellular domain; 25 mM Na2HPO4, 50 mM NaCl, pH 6.0, 35 °C; two datasets globally fit (NITPIC, SEDPHAT); conditions: both partners purified
[2] = biological target: T2, Human CD44 extracellular domain, recombinant (human, UniProt P16070 21-649); experiment: as above; conditions: both partners purified
T2 construct: CD44, human, extracellular domain; also called hCD44; source: expi293 cells, purified from the conditioned medium
T2 sequence (P16070 21-649): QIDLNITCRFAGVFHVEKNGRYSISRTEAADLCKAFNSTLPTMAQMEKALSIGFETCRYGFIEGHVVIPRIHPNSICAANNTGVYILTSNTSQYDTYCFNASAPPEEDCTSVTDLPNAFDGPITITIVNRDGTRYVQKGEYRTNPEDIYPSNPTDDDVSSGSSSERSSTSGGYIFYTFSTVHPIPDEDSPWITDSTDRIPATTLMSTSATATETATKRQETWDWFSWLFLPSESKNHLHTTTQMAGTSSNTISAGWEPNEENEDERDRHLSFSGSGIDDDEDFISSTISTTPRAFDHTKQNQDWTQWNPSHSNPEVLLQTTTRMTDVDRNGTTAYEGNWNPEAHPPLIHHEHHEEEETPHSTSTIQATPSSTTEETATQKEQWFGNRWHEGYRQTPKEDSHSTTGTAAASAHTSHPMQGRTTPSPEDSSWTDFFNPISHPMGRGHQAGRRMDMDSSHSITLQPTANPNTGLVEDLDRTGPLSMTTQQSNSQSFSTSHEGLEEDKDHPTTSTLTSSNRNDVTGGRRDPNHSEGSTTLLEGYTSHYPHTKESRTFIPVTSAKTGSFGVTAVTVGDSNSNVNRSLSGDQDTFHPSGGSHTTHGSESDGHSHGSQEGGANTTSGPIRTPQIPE

Binder	Kd [1]	Kd [2]
B1	30 nM	122 nM
B2	20 nM	78 nM
